Test results taken from patent EP4663654A1 (Hangzhou Sciwind Biosciences Co., Ltd., dated 2025).
Values belong to the binder of their own block, whether it stands above or below them. Starred links: 1 amine or outer side, 2 acyl side, 3 side chain; linkers in the order of their positions; H or OH if unused. *: point of attachment. C20 diacid = O=C(O)CCCCCCCCCCCCCCCCCCC(=O)*; C18 diacid = O=C(O)CCCCCCCCCCCCCCCCC(=O)*; C16 diacid = O=C(O)CCCCCCCCCCCCCCC(=O)*; γGlu = O=C(O)[C@H](CCC(=O)[*:2])N[*:1]; AEEA = NCCOCCOCC(=O)O

Target: T1, human amylin receptor (AMY3) on CHO-K1/Ga15/AMY3 amylin receptor/CRE-luc cells (human, UniProt P30988 25-474; O60896 24-148)
T1 sequence (looked up) 1: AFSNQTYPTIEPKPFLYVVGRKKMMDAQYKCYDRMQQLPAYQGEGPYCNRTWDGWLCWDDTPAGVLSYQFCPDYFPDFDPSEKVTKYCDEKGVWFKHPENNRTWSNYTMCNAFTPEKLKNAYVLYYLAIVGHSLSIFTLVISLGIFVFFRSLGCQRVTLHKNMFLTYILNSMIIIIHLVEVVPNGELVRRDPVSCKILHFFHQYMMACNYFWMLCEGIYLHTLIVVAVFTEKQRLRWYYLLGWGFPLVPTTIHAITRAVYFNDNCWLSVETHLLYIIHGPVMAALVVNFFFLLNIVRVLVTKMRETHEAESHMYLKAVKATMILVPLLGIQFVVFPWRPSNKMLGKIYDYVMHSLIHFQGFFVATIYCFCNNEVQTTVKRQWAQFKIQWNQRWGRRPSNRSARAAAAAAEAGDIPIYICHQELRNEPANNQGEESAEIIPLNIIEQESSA
T1 sequence (looked up) 2: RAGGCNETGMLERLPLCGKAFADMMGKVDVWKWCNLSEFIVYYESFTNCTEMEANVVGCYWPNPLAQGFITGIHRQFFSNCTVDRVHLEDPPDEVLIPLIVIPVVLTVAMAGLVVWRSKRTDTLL
Experiment: cell-based or functional assay

B1: polypeptide derivative M4 (peptide)
peptide: {C20 diacid-γGlu}-ASQLSTAVLGRLADFLRHFTDRDRDILPPTNVGSNTP-NH2
SMILES: CC[C@H](C)[C@H](NC(=O)[C@H](CC(=O)O)NC(=O)[C@H](CCCNC(=N)N)NC(=O)[C@H](CC(=O)O)NC(=O)[C@H](CCCNC(=N)N)NC(=O)[C@H](CC(=O)O)NC(=O)[C@@H](NC(=O)[C@H](Cc1ccccc1)NC(=O)[C@H](Cc1c[nH]cn1)NC(=O)[C@H](CCCNC(=N)N)NC(=O)[C@H](CC(C)C)NC(=O)[C@H](Cc1ccccc1)NC(=O)[C@H](CC(=O)O)NC(=O)[C@H](C)NC(=O)[C@H](CC(C)C)NC(=O)[C@H](CCCNC(=N)N)NC(=O)CNC(=O)[C@H](CC(C)C)NC(=O)[C@@H](NC(=O)[C@H](C)NC(=O)[C@@H](NC(=O)[C@H](CO)NC(=O)[C@H](CC(C)C)NC(=O)[C@H](CCC(N)=O)NC(=O)[C@H](CO)NC(=O)[C@H](C)NC(=O)CC[C@H](NC(=O)CCCCCCCCCCCCCCCCCCC(=O)O)C(=O)O)[C@@H](C)O)C(C)C)[C@@H](C)O)C(=O)N[C@@H](CC(C)C)C(=O)N1CCC[C@H]1C(=O)N1CCC[C@H]1C(=O)N[C@H](C(=O)N[C@@H](CC(N)=O)C(=O)N[C@H](C(=O)NCC(=O)N[C@@H](CO)C(=O)N[C@@H](CC(N)=O)C(=O)N[C@H](C(=O)N1CCC[C@H]1C(N)=O)[C@@H](C)O)C(C)C)[C@@H](C)O
EC50/nM, CRE-luciferase reporter in amylin receptor/CRE-luc CHO cells: 0.081 nM
Relative activity (the EC50 ratio of Cagrilintide to the compound): 32%

B4: polypeptide derivative M25 (peptide)
peptide: {C20 diacid-γGlu-AEEA-AEEA-AEEA-AEEA-AEEA-AEEA}-ASQLSTAATQRLADFLRHFTDRDRDILPPTNVGSNTP-NH2
SMILES: CC[C@H](C)[C@H](NC(=O)[C@H](CC(=O)O)NC(=O)[C@H](CCCNC(=N)N)NC(=O)[C@H](CC(=O)O)NC(=O)[C@H](CCCNC(=N)N)NC(=O)[C@H](CC(=O)O)NC(=O)[C@@H](NC(=O)[C@H](Cc1ccccc1)NC(=O)[C@H](Cc1c[nH]cn1)NC(=O)[C@H](CCCNC(=N)N)NC(=O)[C@H](CC(C)C)NC(=O)[C@H](Cc1ccccc1)NC(=O)[C@H](CC(=O)O)NC(=O)[C@H](C)NC(=O)[C@H](CC(C)C)NC(=O)[C@H](CCCNC(=N)N)NC(=O)[C@H](CCC(N)=O)NC(=O)[C@@H](NC(=O)[C@H](C)NC(=O)[C@H](C)NC(=O)[C@@H](NC(=O)[C@H](CO)NC(=O)[C@H](CC(C)C)NC(=O)[C@H](CCC(N)=O)NC(=O)[C@H](CO)NC(=O)[C@H](C)NC(=O)COCCOCCNC(=O)COCCOCCNC(=O)COCCOCCNC(=O)COCCOCCNC(=O)COCCOCCNC(=O)COCCOCCNC(=O)CC[C@H](NC(=O)CCCCCCCCCCCCCCCCCCC(=O)O)C(=O)O)[C@@H](C)O)[C@@H](C)O)[C@@H](C)O)C(=O)N[C@@H](CC(C)C)C(=O)N1CCC[C@H]1C(=O)N1CCC[C@H]1C(=O)N[C@H](C(=O)N[C@@H](CC(N)=O)C(=O)N[C@H](C(=O)NCC(=O)N[C@@H](CO)C(=O)N[C@@H](CC(N)=O)C(=O)N[C@H](C(=O)N1CCC[C@H]1C(N)=O)[C@@H](C)O)C(C)C)[C@@H](C)O
EC50/nM, CRE-luciferase reporter in amylin receptor/CRE-luc CHO cells: 0.124 nM
Relative activity (the EC50 ratio of Cagrilintide to the compound): 25%

B5: polypeptide derivative M24 (peptide)
peptide: {C20 diacid-γGlu-AEEA-AEEA-AEEA-AEEA}-ASQLSTAATQRLADFLRHFTDRDRDILPPTNVGSNTP-NH2
SMILES: CC[C@H](C)[C@H](NC(=O)[C@H](CC(=O)O)NC(=O)[C@H](CCCNC(=N)N)NC(=O)[C@H](CC(=O)O)NC(=O)[C@H](CCCNC(=N)N)NC(=O)[C@H](CC(=O)O)NC(=O)[C@@H](NC(=O)[C@H](Cc1ccccc1)NC(=O)[C@H](Cc1c[nH]cn1)NC(=O)[C@H](CCCNC(=N)N)NC(=O)[C@H](CC(C)C)NC(=O)[C@H](Cc1ccccc1)NC(=O)[C@H](CC(=O)O)NC(=O)[C@H](C)NC(=O)[C@H](CC(C)C)NC(=O)[C@H](CCCNC(=N)N)NC(=O)[C@H](CCC(N)=O)NC(=O)[C@@H](NC(=O)[C@H](C)NC(=O)[C@H](C)NC(=O)[C@@H](NC(=O)[C@H](CO)NC(=O)[C@H](CC(C)C)NC(=O)[C@H](CCC(N)=O)NC(=O)[C@H](CO)NC(=O)[C@H](C)NC(=O)COCCOCCNC(=O)COCCOCCNC(=O)COCCOCCNC(=O)COCCOCCNC(=O)CC[C@H](NC(=O)CCCCCCCCCCCCCCCCCCC(=O)O)C(=O)O)[C@@H](C)O)[C@@H](C)O)[C@@H](C)O)C(=O)N[C@@H](CC(C)C)C(=O)N1CCC[C@H]1C(=O)N1CCC[C@H]1C(=O)N[C@H](C(=O)N[C@@H](CC(N)=O)C(=O)N[C@H](C(=O)NCC(=O)N[C@@H](CO)C(=O)N[C@@H](CC(N)=O)C(=O)N[C@H](C(=O)N1CCC[C@H]1C(N)=O)[C@@H](C)O)C(C)C)[C@@H](C)O
EC50/nM, CRE-luciferase reporter in amylin receptor/CRE-luc CHO cells: 0.066 nM
Relative activity (the EC50 ratio of Cagrilintide to the compound): 47%

The remaining lines, values ahead:

EC50/nM, CRE-luciferase reporter in amylin receptor/CRE-luc CHO cells: 0.081 nM
Relative activity (the EC50 ratio of Cagrilintide to the compound): 32%
B2: polypeptide derivative M3 (peptide)
peptide: {C20 diacid-γGlu}-ASELSTAALGRLADFLRHFTDRDRDILPPTNVGSNTP-NH2
SMILES: CC[C@H](C)[C@H](NC(=O)[C@H](CC(=O)O)NC(=O)[C@H](CCCNC(=N)N)NC(=O)[C@H](CC(=O)O)NC(=O)[C@H](CCCNC(=N)N)NC(=O)[C@H](CC(=O)O)NC(=O)[C@@H](NC(=O)[C@H](Cc1ccccc1)NC(=O)[C@H](Cc1c[nH]cn1)NC(=O)[C@H](CCCNC(=N)N)NC(=O)[C@H](CC(C)C)NC(=O)[C@H](Cc1ccccc1)NC(=O)[C@H](CC(=O)O)NC(=O)[C@H](C)NC(=O)[C@H](CC(C)C)NC(=O)[C@H](CCCNC(=N)N)NC(=O)CNC(=O)[C@H](CC(C)C)NC(=O)[C@H](C)NC(=O)[C@H](C)NC(=O)[C@@H](NC(=O)[C@H](CO)NC(=O)[C@H](CC(C)C)NC(=O)[C@H](CCC(=O)O)NC(=O)[C@H](CO)NC(=O)[C@H](C)NC(=O)CC[C@H](NC(=O)CCCCCCCCCCCCCCCCCCC(=O)O)C(=O)O)[C@@H](C)O)[C@@H](C)O)C(=O)N[C@@H](CC(C)C)C(=O)N1CCC[C@H]1C(=O)N1CCC[C@H]1C(=O)N[C@H](C(=O)N[C@@H](CC(N)=O)C(=O)N[C@H](C(=O)NCC(=O)N[C@@H](CO)C(=O)N[C@@H](CC(N)=O)C(=O)N[C@H](C(=O)N1CCC[C@H]1C(N)=O)[C@@H](C)O)C(C)C)[C@@H](C)O

EC50/nM, CRE-luciferase reporter in amylin receptor/CRE-luc CHO cells: 0.017 nM
Relative activity (the EC50 ratio of Cagrilintide to the compound): 182%
B3: polypeptide derivative M23 (peptide)
peptide: {C16 diacid-γGlu}-ASQLSTAATQRLADFLRHFTDRDRDILPPTNVGSNTP-NH2
SMILES: CC[C@H](C)[C@H](NC(=O)[C@H](CC(=O)O)NC(=O)[C@H](CCCNC(=N)N)NC(=O)[C@H](CC(=O)O)NC(=O)[C@H](CCCNC(=N)N)NC(=O)[C@H](CC(=O)O)NC(=O)[C@@H](NC(=O)[C@H](Cc1ccccc1)NC(=O)[C@H](Cc1c[nH]cn1)NC(=O)[C@H](CCCNC(=N)N)NC(=O)[C@H](CC(C)C)NC(=O)[C@H](Cc1ccccc1)NC(=O)[C@H](CC(=O)O)NC(=O)[C@H](C)NC(=O)[C@H](CC(C)C)NC(=O)[C@H](CCCNC(=N)N)NC(=O)[C@H](CCC(N)=O)NC(=O)[C@@H](NC(=O)[C@H](C)NC(=O)[C@H](C)NC(=O)[C@@H](NC(=O)[C@H](CO)NC(=O)[C@H](CC(C)C)NC(=O)[C@H](CCC(N)=O)NC(=O)[C@H](CO)NC(=O)[C@H](C)NC(=O)CC[C@H](NC(=O)CCCCCCCCCCCCCCC(=O)O)C(=O)O)[C@@H](C)O)[C@@H](C)O)[C@@H](C)O)C(=O)N[C@@H](CC(C)C)C(=O)N1CCC[C@H]1C(=O)N1CCC[C@H]1C(=O)N[C@H](C(=O)N[C@@H](CC(N)=O)C(=O)N[C@H](C(=O)NCC(=O)N[C@@H](CO)C(=O)N[C@@H](CC(N)=O)C(=O)N[C@H](C(=O)N1CCC[C@H]1C(N)=O)[C@@H](C)O)C(C)C)[C@@H](C)O

EC50/nM, CRE-luciferase reporter in amylin receptor/CRE-luc CHO cells: 0.016 nM
Relative activity (the EC50 ratio of Cagrilintide to the compound): 198%
B6: polypeptide derivative M22 (peptide)
peptide: {C18 diacid-γGlu}-ASQLSTAATQRLADFLRHFTDRDRDILPPTNVGSNTP-NH2
SMILES: CC[C@H](C)[C@H](NC(=O)[C@H](CC(=O)O)NC(=O)[C@H](CCCNC(=N)N)NC(=O)[C@H](CC(=O)O)NC(=O)[C@H](CCCNC(=N)N)NC(=O)[C@H](CC(=O)O)NC(=O)[C@@H](NC(=O)[C@H](Cc1ccccc1)NC(=O)[C@H](Cc1c[nH]cn1)NC(=O)[C@H](CCCNC(=N)N)NC(=O)[C@H](CC(C)C)NC(=O)[C@H](Cc1ccccc1)NC(=O)[C@H](CC(=O)O)NC(=O)[C@H](C)NC(=O)[C@H](CC(C)C)NC(=O)[C@H](CCCNC(=N)N)NC(=O)[C@H](CCC(N)=O)NC(=O)[C@@H](NC(=O)[C@H](C)NC(=O)[C@H](C)NC(=O)[C@@H](NC(=O)[C@H](CO)NC(=O)[C@H](CC(C)C)NC(=O)[C@H](CCC(N)=O)NC(=O)[C@H](CO)NC(=O)[C@H](C)NC(=O)CC[C@H](NC(=O)CCCCCCCCCCCCCCCCC(=O)O)C(=O)O)[C@@H](C)O)[C@@H](C)O)[C@@H](C)O)C(=O)N[C@@H](CC(C)C)C(=O)N1CCC[C@H]1C(=O)N1CCC[C@H]1C(=O)N[C@H](C(=O)N[C@@H](CC(N)=O)C(=O)N[C@H](C(=O)NCC(=O)N[C@@H](CO)C(=O)N[C@@H](CC(N)=O)C(=O)N[C@H](C(=O)N1CCC[C@H]1C(N)=O)[C@@H](C)O)C(C)C)[C@@H](C)O
